This is an account of results in US20080058263A1 (published 2008).

Substitutions are numbered along the chain they refer to.

T1: VEGFR-3-Fc (UniProt P35916 25-328)
T1 construct: domain: first three Ig domains; conditioned supernatant of 293T cells; also called VEGFR-3-Fc fusion protein; not shown: Fc fragment of the pIg vector
T1 sequence (looked up): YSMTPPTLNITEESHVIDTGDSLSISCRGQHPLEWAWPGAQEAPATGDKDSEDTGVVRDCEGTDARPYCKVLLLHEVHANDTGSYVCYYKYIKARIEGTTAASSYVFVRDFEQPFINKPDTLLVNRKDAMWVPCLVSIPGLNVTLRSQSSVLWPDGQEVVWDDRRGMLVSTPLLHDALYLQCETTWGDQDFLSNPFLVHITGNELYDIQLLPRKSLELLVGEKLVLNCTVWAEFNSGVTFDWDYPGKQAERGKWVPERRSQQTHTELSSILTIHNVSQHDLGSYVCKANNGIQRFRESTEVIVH

B1: 22-2 (ligand)
chain: AHYNTEILKSIDNEWRKTQCMPREVCIDVGKEFGVATNTFFKPPCVSVYRCGGCCNDEGLECMNTSTSYLSKTLFEIKPHQGQHIGEMSFLQHNKCECRPKKD
B2: 22-14 (ligand)
chain: AHYNTEILKSIDNEWRKTQCMPREVCIDVGKEFGVATNTFFKPPCVSVYRCGGCCNDEGLECMNTSTSYLSKTLFEITVPLSQGPKPVTISFANHTSCRCMSKLD
B3: 23-14 (ligand)
chain: B2 chain with F33Y, G34P, V35D, A36E, T37I, N38E, T39Y, F40I
B4: 21-14 (ligand)
chain: AHYNTEILKSIDNEWRKTQCMPREVCIDVGKEYPDEIEYIFKPSCVPLMRCGGCCNDEGLECMNTSTSYLSKTLFEITVPLSQGPKPVTISFANHTSCRCMSKLD
B5: 24-16 (ligand)
chain: B2 chain with P44S, S47P, V48L, Y49M, D57S, E61Q
B6: 22-10 (ligand)
chain: B2 chain with A93L, N94Q, T96N, S97K, R99E, M101R, S102P, L104K
B7: 52-14 (ligand)
chain: B2 chain with R23I, V25T, C26L, I27V, V29I, G30F, K31Q
B8: 53-16 (ligand)
chain: AHYNTEILKSIDNEWRKTQCMPIETLVDIFQEYPDEIEYIFKPPCVSVYRCGGCCNSEGLQCMNTSTSYLSKTLFEITVPLSQGPKPVTISFANHTSCRCMSKLD
B9: 53-14 (ligand)
chain: B8 chain with S57D, Q61E
B10: 23-16 (ligand)
chain: B4 chain with S44P, P47S, L48V, M49Y, D57S, E61Q
B11: 72-16 (ligand)
chain: B2 chain with A1G, H2Q, Y3N, N4H, T5H, I7V, L8V, D57S, E61Q
B12: 73-14 (ligand)
chain: GQNHHEVVKSIDNEWRKTQCMPREVCIDVGKEYPDEIEYIFKPPCVSVYRCGGCCNDEGLECMNTSTSYLSKTLFEITVPLSQGPKPVTISFANHTSCRCMSKLD
B13: 52-16 (ligand)
chain: B8 chain with Y33F, P34G, D35V, E36A, I37T, E38N, Y39T, I40F
B14: 74-14 (ligand)
chain: GQNHHEVVKSIDNEWRKTQCMPREVCIDVGKEFGVATNTFFKPSCVPLMRCGGCCNDEGLECMNTSTSYLSKTLFEITVPLSQGPKPVTISFANHTSCRCMSKLD
B15: 22-12 (ligand)
chain: B2 chain with D57S, E61Q, A93L, N94Q, T96N, S97K, R99E, M101R, S102P, L104K
B16: 21-16 (ligand)
chain: B4 chain with D57S, E61Q
B17: 21-10 (ligand)
chain: B4 chain with A93L, N94Q, T96N, S97K, R99E, M101R, S102P, L104K
B18: 24-14 (ligand)
chain: B2 chain with P44S, S47P, V48L, Y49M
B19: 24-10 (ligand)
chain: AHYNTEILKSIDNEWRKTQCMPREVCIDVGKEFGVATNTFFKPSCVPLMRCGGCCNDEGLECMNTSTSYLSKTLFEITVPLSQGPKPVTISFLQHNKCECRPKKD
B20: 73-16 (ligand)
chain: B12 chain with D57S, E61Q
B21: 51-14 (ligand)
chain: B8 chain with P44S, S47P, V48L, Y49M, S57D, Q61E
B22: 71-14 (ligand)
chain: B12 chain with P44S, S47P, V48L, Y49M
B23: 72-14 (ligand)
chain: B14 chain with S44P, P47S, L48V, M49Y
B24: 23-10 (ligand)
chain: AHYNTEILKSIDNEWRKTQCMPREVCIDVGKEYPDEIEYIFKPPCVSVYRCGGCCNDEGLECMNTSTSYLSKTLFEITVPLSQGPKPVTISFLQHNKCECRPKKD
notes: clone entry
B25: 23-12 (ligand)
chain: B24 chain with D57S, E61Q

T2 sequence (P17948 27-338): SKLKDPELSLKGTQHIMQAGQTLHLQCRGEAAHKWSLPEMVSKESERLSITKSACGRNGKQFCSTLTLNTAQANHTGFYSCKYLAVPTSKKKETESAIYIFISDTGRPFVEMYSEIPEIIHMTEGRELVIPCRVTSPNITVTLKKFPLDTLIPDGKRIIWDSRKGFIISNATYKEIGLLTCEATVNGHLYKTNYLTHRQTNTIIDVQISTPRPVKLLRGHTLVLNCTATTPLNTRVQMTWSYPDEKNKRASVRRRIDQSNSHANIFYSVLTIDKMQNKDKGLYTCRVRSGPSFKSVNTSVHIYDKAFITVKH

One assay concerns the target T2, VEGFR-1-Fc (UniProt P17948 27-338).
T2 construct: domain: first three Ig domains; expressed in Drosophila S2 cells, purified on Protein A sepharose; also called VEGFR-1-Fc fusion protein; not shown: Fc fragment from the Signal-pIgPlus vector
In words: receptor-Fc IP. The procedure:
(§1) The binding assay procedure was identical to the immunoprecipitation using pentahistidine antibody described in Example 2, apart from the composition of the immunoprecipitation (IP) mixes. The IP mixes used for the receptor binding analysis were as follows: For VEGFR-1 binding assays, the IP mix was phosphate buffered saline (PBS) containing 1.5% BSA, 0.06% Tween 20, 3 μg/ml heparin and 400 ng/ml VEGFR-1-Fc fusion protein (100 μl of this IP mix was added to 200 μl of sample supernatant); for VEGFR-2 binding assays, the IP mix was 82% conditioned cell supernatant from 293T cells transiently expressing VEGFR-2-Fc fusion protein in mixture with 18% of a PBS solution that contained 5% BSA, 0.2% Tween 20, and 10 μg/ml heparin (250 μl of IP mix was added to 200 μl of sample supernatant); and for VEGFR-3 binding assays, the IP mix was 82% conditioned cell supernatant from 293T cells transiently expressing VEGFR-3-Fc fusion protein, 18% of PBS containing 5% BSA, 0.2% Tween 20, and 10 μg/ml heparin (250 μl of IP mix was added to 200 μl of sample supernatant).
For the molecule B1, the binding result is reported as “no binding”.
For B2, the binding result was “no binding”.
On the same count and under the same terms, for B3 the value was “no binding”.
Same read-out and setting: for B4 the value was “no binding”; for B5, “no binding”; for B6, “no binding”.
The same measure, in the same setting: in the case of B7 it was “no binding”; in that of B8, “no binding”; in that of B9, “no binding”.
In the case of B10, the binding result is reported as “no binding”.
Same read-out and setting: for B11 the value was “no binding”.
With B12, the binding result was “no binding”.
On the same count and under the same terms, in the case of B13 it was “no binding”; in that of B14, “no binding”; in that of B15, “no binding”.
In the case of B16, the binding result is given as “no binding”.
B17: the binding result is given as “no binding”.
On the same count and under the same terms, for B18 the value was “no binding”.
Turning to B19, the binding result is reported as “no binding”.
On the same count and under the same terms, for B20 the value was “no binding”.
Turning to B21, the binding result is “no binding”.
The same measure, in the same setting: in the case of B22 it was “no binding”; in that of B23, “no binding”; in that of B24, “no binding”.
The same measure, in the same setting: for B25 the value was “no binding”.

A further assay addresses T1, VEGFR-3-Fc. The assay is described as follows: receptor-Fc IP. The procedure: as §1
For the molecule B1, the binding result is “binds”.
On the same count and under the same terms, for B2 the value was “binds”; for B3, “no binding”.
Turning to B4, the binding result is “no binding”.
For B5, the binding result was “no binding”.
Take B6: the binding result is given as “binds”.
The same measure, in the same setting: for B7 the value was “binds”; for B8, “no binding”; for B9, “no binding”.
Same read-out and setting: in the case of B10 it was “no binding”; in that of B11, “binds”.
For the molecule B12, the binding result is “no binding”.
On the same count and under the same terms, in the case of B13 it was “binds”; in that of B14, “no binding”; in that of B15, “binds”.
B16: the binding result is “no binding”.
For B17, the binding result is “no binding”.
As for B18, the binding result is listed as “no binding”.
Regarding B19, the binding result is recorded as “no binding”.
On to B20, for which the binding result was “no binding”.
Same read-out and setting: in the case of B21 it was “no binding”.
Still for that read-out and setting: in the case of B22 it was “no binding”; in that of B23, “binds”.
On to B24, for which the binding result is “no binding”.
Same read-out and setting: for B25 the value was “no binding”.

The target of the next assay is T3, VEGFR-2-Fc (UniProt P35968 20-322).
T3 construct: domain: first 3 Ig domains; conditioned supernatant of 293T cells; also called VEGFR-2-Fc fusion protein; not shown: Fc fragment of the pIg vector
T3 sequence (P35968 20-322): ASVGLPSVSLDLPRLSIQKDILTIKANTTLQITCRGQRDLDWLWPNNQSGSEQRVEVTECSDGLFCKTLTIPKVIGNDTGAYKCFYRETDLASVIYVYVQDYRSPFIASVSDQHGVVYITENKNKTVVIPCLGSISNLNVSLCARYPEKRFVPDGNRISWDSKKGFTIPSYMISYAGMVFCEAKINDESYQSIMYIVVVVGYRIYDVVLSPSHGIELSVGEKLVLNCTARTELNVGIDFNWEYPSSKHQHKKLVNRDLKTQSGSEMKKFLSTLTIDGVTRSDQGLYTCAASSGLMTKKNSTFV
The assay is described as follows: receptor-Fc IP. The procedure: as §1
On to B1, for which the binding result is “binds”.
Take B2: the binding result is on record as “binds”.
On the same count and under the same terms, for B3 the value was “binds”.
Still for that read-out and setting: for B4 the value was “no binding”; for B5, “no binding”; for B6, “binds”.
Still for that read-out and setting: for B7 the value was “no binding”.
B8: the binding result is listed as “no binding”.
For B9, the binding result is given as “no binding”.
Still for that read-out and setting: for B10 the value was “no binding”; for B11, “binds”; for B12, “no binding”.
Still for that read-out and setting: for B13 the value was “binds”; for B14, “no binding”.
Turning to B15, the binding result is “binds”.
On the same count and under the same terms, for B16 the value was “no binding”.
Regarding B17, the binding result is “no binding”.
Still for that read-out and setting: in the case of B18 it was “no binding”.
On the same count and under the same terms, in the case of B19 it was “no binding”; in that of B20, “no binding”.
With B21, the binding result is listed as “no binding”.
On the same count and under the same terms, for B22 the value was “no binding”.
The same measure, in the same setting: for B23 the value was “binds”; for B24, “binds”.
Still for that read-out and setting: in the case of B25 it was “binds”.
